Non-standard residues stand in square brackets, D forms with d. pT = C[C@@H](OP(=O)(O)O)[C@H](N)C(=O)O; pS = N[C@@H](COP(=O)(O)O)C(=O)O Some results are limits rather than exact numbers.

These results are taken from paper PMC8441438, “Dynamic regulation of mitotic ubiquitin ligase APC/C by coordinated Plx1 kinase and PP2A phosphatase action on a flexible Apc1 loop” (The EMBO Journal, 2021).

Sequences and labels used below:
B3: MBP-fused Apc1-loop^500 WT fragment (domain or fragment, Xenopus tropicalis, UniProt Q08D52 515-584, looked up)
chain: GLAAPSLGMSNPMPRPSTPLESISTPAKPLNKHLAPMDEAGMLSPVPELRDSTRLHESTYLDDCTFHQFG
notes: Apc1 (APC/C subunit 1), Xenopus tropicalis, loop^500, residues 515-584; Added unphosphorylated; becomes phosphorylated at CDK sites T532, T539 and S558 when incubated in anaphase egg extracts; MBP is PreScission-cleavable and His6 TEV-cleavable; also called MBP-Apc1-loop^500; CDK^- Apc1-loop^500; source: recombinant, purified as described previously (Fujimitsu & Yamano, 2020); not shown: MBP, …
B4: Plx1-PBD WT (polo-box domain of Plx1) (domain or fragment, Xenopus laevis, UniProt P70032 362-598, looked up)
chain: EPADCYLSEMLQQLTCLNAVKPSERALIRQEEAEDPASIPIFWISKWVDYSDKYGLGYQLCDNSVGVLFNDSTRLIMYNDGDSLQYIERNNTESYLNVRSYPTTLTKKITLLKYFRNYMSEHLLKAGANTTPREGDELARLPFLRTWFRTRSAIILHLSNGTVQINFFQDHTKIILCPLMAAVSYIDEKREFRTYKLSLIQEFGCCKELASRLRYARTMVEKLQSSKSAVAHVKASA
notes: Plx1, Xenopus laevis, polo-box domain, amino acids 362-598; 3xFlag is PreScission-cleavable, His6 TEV-cleavable; cleavage is not reported; also called WT Plx1-PBD; source: E. coli BL21-CodonPlus (DE3), purified (Ni-NTA agarose)

Common to all, as to conditions: both partners purified
Assay [1] has as its target B4. The experiment in a line: pull-down; purified proteins only: MBP-fused Apc1-loop^500 incubated with or without purified Cdk2/cyclin A (30°C, 2 h, 1 mM ATP), bound to amylose beads, incubated with Plx1-PBD at 4°C (on ice) for 10 min in XB^CSF with 0.01% NP-40 without EGTA; Coomassie staining.
The target of assay [2] is B4. As to the kind of experiment: pull-down; dissociation assay: Plx1-PBD/MBP-Apc1-loop^500 complexes formed in anaphase extracts, isolated on amylose beads and incubated with (78 nM) or without purified PP2A-B56γ at 23°C for 30 or 60 min; PBD left on the beads by Coomassie staining.
The target of assay [3] is B4. The experiment in a line: pull-down; MBP-fused Apc1-loop^500 on amylose beads incubated in anaphase extracts at 23°C for 1 h, then purified Plx1-PBD (10 µg or indicated amounts) added to the extract for 15 min; bound proteins by SDS-PAGE and Coomassie staining.
The target of assay [4] is B3. The assay is described as above.

B1: MBP-fused Apc1-loop^500 T532A phosphorylated by Cdk2/cyclin A (domain or fragment, Xenopus tropicalis, UniProt Q08D52 515-584, looked up)
chain: GLAAPSLGMSNPMPRPSAPLESISTPAKPLNKHLAPMDEAGMLSPVPELRDSTRLHESTYLDDCTFHQFG
modifications: also: MBP fusion, phosphorylated in vitro by Cdk2/cyclin A, sites not given here
notes: Apc1, Xenopus tropicalis, loop^500, residues 515-584; source: recombinant, purified, then phosphorylated in vitro with purified Cdk2/cyclin A; not shown: MBP, N-terminal, kept
As to B1, the binding result in assay [1] is “binds”.

B2: MBP-fused Apc1-loop^500 E562A (domain or fragment, Xenopus tropicalis, UniProt Q08D52 515-584, looked up)
chain: GLAAPSLGMSNPMPRPSTPLESISTPAKPLNKHLAPMDEAGMLSPVPALRDSTRLHESTYLDDCTFHQFG
notes: Apc1, Xenopus tropicalis, loop^500, residues 515-584; source: recombinant, purified as described previously (Fujimitsu & Yamano, 2020); not shown: MBP, N-terminal, kept
Consider B2, for which the binding result in assay [2] is “binds”.
Consider B3, for which the binding result in assay [3] was “binds”.
With B4, the “stoichiometry N” value in assay [4] is > 1 Plx1-PBD per Apc1-loop^500.

B5: MBP-fused Apc1-loop^500 WT phosphorylated by Cdk2/cyclin A (domain or fragment, Xenopus tropicalis, UniProt Q08D52 515-584, looked up)
chain: GLAAPSLGMSNPMPRPSTPLESIS[pT]PAKPLNKHLAPMDEAGML[pS]PVPELRDSTRLHESTYLDDCTFHQFG
modifications: not fully specified (residue 18, N-terminus); also: MBP fusion, pT532 only in upper of two bands (partial), phosphorylated in vitro by Cdk2/cyclin A
notes: Apc1, Xenopus tropicalis, loop^500, residues 515-584; After phosphorylation the protein runs as two bands; only the upper one carries pT532; also called Apc1-loop^500 (CDK^+); phosphorylated MBP-Apc1-loop^500; source: recombinant, purified, then phosphorylated in vitro with purified Cdk2/cyclin A at 30°C for 2 h; not shown: MBP, N-terminal, kept
For B5, in assay [1], the binding result is recorded as “binds”.
